Legend:
[1] = Conversion of Hipp-Asp to hippuric acid by mutant and native human CPB, HPLC assay (Example 6); format: biochemical; settings: 5 hr at 37° C.; 4 μg enzyme; 0.5 mM substrate
Experimental: (§1) Purified mutants of human CPB (D253K and D253R; Examples 1-3) and native human CPB, produced as described in Reference Example 12, were assayed for their ability to convert either hippuryl-L-aspartic acid (Hipp-Asp—Reference Example 2), hippuryl-L-glutamic acid (Hipp-Glu—Reference Example 1) or hippuryl-L-arginine (Sigma Chemical Company—cat no. H6625) to hippuric acid using a HPLC based assay.
(§2) The reaction mixture (250 μl) contained 4 μg human CPB (native or mutant) and 0.5 mM Hipp-Asp or Hipp-Glu in 0.025 M Tris-HCL, pH 7.5. Samples were incubated for 5 hr at 37° C. The reactions were terminated by the addition of 250 μl of 80% methanol, 20% distilled water, 0.2% trifluoro acetic acid and the amount of hippuric acid generated was quantified by HPLC.
(§3) HPLC analysis was carried out using a Hewlett Packard 1090 Series 11 (with diode array) HPLC system. Samples (50 μl) were injected onto a Hichrom Hi-RPB column (25 cm) and separated using a mobile phase of 40% methanol, 60% distilled water, 0.1% trifluoro acetic acid at a flow rate of 1 ml/min. The amount of product (hippuric acid) produced was determined from calibration curves generated with known amounts of hippuric acid (Sigma-H6375). The results are shown in Table 1 and are expressed as the percentage conversion of substrate into product in 5 hr at 37° C. with 4 μg enzyme.

[2] = Conversion of Hipp-Arg to hippuric acid by mutant and native human CPB, HPLC assay (Example 6); format: biochemical; settings: 5 hr at 37° C.; 4 μg enzyme
Experimental: as §1, §2, §3

[3] = test system: LoVo colorectal tumour cells; settings: 100 μg enzyme added to assay wells containing glutamic acid prodrug
[4] = Km and kcat of recombinant HCPB against Hipp-Arg, spectrophotometric assay; format: biochemical; settings: Hipp-Arg 0.75-[…]; CPB 1 μg/ml; 37° C.; pH 7.5
Experimental: Purified human CPB, produced as described in Reference Example 12, was assayed for its ability to convert hippuryl-L-arginine (Hipp-Arg; Sigma) to hippuric acid using a spectrophotometric assay.
Measurements were carried out at 37° C. in 0.25 mM Tris HCl buffer, pH 7.5 using 1 cm path length cuvettes in a total volume of 1.0 ml using a Perkin Elmer Lambda 2 spectrophotometer. Km and Vmax values were calculated using the ENZFITTER software programme (Biosoft, Perkin Elmer). Kcat was calculated from Vmax by dividing by the enzyme concentration in the reaction mixture.

[5] = Conversion of Hipp-Glu to hippuric acid by mutant and native human CPB, HPLC assay (Example 6); format: biochemical; settings: 5 hr at 37° C.; 4 μg enzyme; 0.5 mM substrate
Experimental: as §1, §2, §3

B1: Native HCPB: purified recombinant native human pancreatic carboxypeptidase B (protein, UniProt P15086 111-417, looked up)
Carboxypeptidase B: ATGHSYEKYNKWETIEAWTQQVATENPALISRSVIGTTFEGRAIYLLKVGKAGQNKPAIFMDCGFHAREWISPAFCQWFVREAVRTYGREIQVTELLDKLDFYVLPVLNIDGYIYTWTKSRFWRKTRSTHTGSSCIGTDPNRNFDAGWCEIGASRNPCDETYCGPAAESEKETKALADFIRNKLSSIKAYLTIHSYSQMMIYPYSYAYKLGENNAELNALAKATVKELASLHGTKYTYGPGATTIYPAAGGSDDWAYDQGIRYSFTFELRDTGRYGFLLPESQIRATCEETFLAIKYVASYVLEHLY
Q: Which “Hipp-Asp (% conversion to Hippuric acid)” value [1] does the source give for B1 here?
A: 0%

Q: And the “Hipp-Arg (% conversion to Hippuric acid)” value [2]?
A: 100%

Q: What about the “cytotoxicity of the glutamic acid prodrug with enzyme added” value [3] of the same molecule?
A: does not significantly enhance

Q: What about the Km [4] of the same molecule?
A: 180 µM

Q: And the “kcat against Hipp-Arg” value [4]?
A: 65 s⁻¹

Q: What about the “Hipp-Glu (% conversion to Hippuric acid)” value [5] of the same molecule?
A: 0%
